The record followed here is the Human Domainome abundance scans (Beltran et al. 2025).

Sequences and labels used below:
B1: Integrator complex subunit 12, residues 155 to 213; numbered along this chain, Q96CB8 (parent)
chain: AMEMGLACVVCRQMMVASGNQLVECQECHNLYHRDCHKPQVTDKEANDPRLVWYCARCT

± gives the uncertainty stated by the source.

The series covers variants of B1. Nature of the series: abundance fitness (aPCA) (normalised: wild type 0, dead -1); higher = more abundant; growth selection in yeast, the domain comes from the species named. As to conditions: Homo sapiens.
For V23F, the abundance fitness was -0.021 ± 0.033.
With V23N the figure was -0.228 ± 0.037.
With V23Y the figure was -0.046 ± 0.037; with V23I, 0.001 ± 0.034; with V23A, -0.179 ± 0.039.
With C25K the figure was -0.915 ± 0.19; with C25N, -0.773 ± 0.11.
For the variant C25I, the abundance fitness was -0.906 ± 0.1.
With C25M the figure was -0.792 ± 0.17.
With C25W the figure was -0.959 ± 0.25; with C25E, -0.824 ± 0.14.
With C25S the figure was -0.662 ± 0.065; with A7M, -0.069 ± 0.054; with A7G, -0.155 ± 0.04.
With A7H, the abundance fitness worked out at 0.078 ± 0.044.
With A7Q the figure was -0.077 ± 0.058; with A7C, -0.022 ± 0.04; with A7L, -0.064 ± 0.037.
With G19F the figure was -0.353 ± 0.05.
For G19N, the abundance fitness was -0.014 ± 0.05.
With G19Q the figure was -0.175 ± 0.11.
Take G19Y: the abundance fitness was -0.167 ± 0.063.
With G19D the figure was 0.031 ± 0.042.
With G19V the figure was -0.088 ± 0.035.
Consider Q40K, for which the abundance fitness is -0.035 ± 0.061.
With Q40E the figure was -0.04 ± 0.049.
With Q40L the figure was -0.045 ± 0.045; with Q40I, 0.023 ± 0.098.
With Q40Y the figure was -0.264 ± 0.093; with Q40W, -0.102 ± 0.057.
Take V9T: the abundance fitness was -0.02 ± 0.038.
With V9G the figure was -0.216 ± 0.048; with V9R, -0.181 ± 0.04; with V9L, -0.202 ± 0.034.
With V9N the figure was -0.223 ± 0.038; with V9C, 0.049 ± 0.041.
With V9Y the figure was -0.147 ± 0.035; with C58F, -1.11 ± 0.18.
As for C58A, the abundance fitness was -0.869 ± 0.07.
C58M: the abundance fitness is -1.09 ± 0.13.
With C58W the figure was -1.26 ± 0.12; with C58H, -0.287 ± 0.075; with C58N, -1.05 ± 0.18.
On to C58V, for which the abundance fitness was -1.04 ± 0.091.
For the variant A1K, the abundance fitness is 0.154 ± 0.25.
With A1H the figure was 0.245 ± 0.17.
Consider A1Y, for which the abundance fitness is -0.168 ± 0.13.
With A1R the figure was -0.061 ± 0.088.
With A1I the figure was -0.049 ± 0.18.
With A1V the figure was 0.037 ± 0.043; with A1S, 0.046 ± 0.071.
Consider A1G, for which the abundance fitness is -0.115 ± 0.044.
With A1P the figure was -0.581 ± 0.19; with P49G, 0.062 ± 0.044; with P49F, -0.333 ± 0.14.
With P49H the figure was -0.132 ± 0.17; with C28N, -0.561 ± 0.039.
With C28V the figure was -0.845 ± 0.04; with C28F, -0.818 ± 0.052; with C28T, -0.749 ± 0.052.
In the case of C28W, the abundance fitness was -0.891 ± 0.058.
With M4W the figure was -0.43 ± 0.064.
With M4I the figure was 0.023 ± 0.036.
With M4Q the figure was -0.055 ± 0.09; with H37D, -0.002 ± 0.035; with H37Q, -0.176 ± 0.085.
For H37S, the abundance fitness was -0.088 ± 0.031.
With H37T the figure was -0.101 ± 0.042; with H37M, 0.031 ± 0.065.
With H29G the figure was -0.016 ± 0.03; with H29P, -0.612 ± 0.057; with H29D, -0.26 ± 0.035.
With H29T the figure was -0.216 ± 0.042; with H29K, 0.084 ± 0.073.
As to H29R, the abundance fitness is -0.053 ± 0.033.
As for L22R, the abundance fitness was -0.153 ± 0.037.
In the case of L22D, the abundance fitness was -0.292 ± 0.048.
Regarding L22P, the abundance fitness was -0.115 ± 0.07.
With L22M the figure was -0.006 ± 0.074; with R34Q, 0.082 ± 0.066.
For R34I, the abundance fitness is -0.019 ± 0.055.
With R34A the figure was -0.054 ± 0.062; with R34L, 0.037 ± 0.045.
With R34G the figure was 0.066 ± 0.086.
With R34H the figure was -0.083 ± 0.067; with R12D, 0.038 ± 0.041.
Turning to R12C, the abundance fitness was -0.069 ± 0.039.
With R12L the figure was -0.101 ± 0.035; with R12G, 0.028 ± 0.037.
With R12F the figure was -0.226 ± 0.034; with R12Q, 0.047 ± 0.068.
Turning to R12P, the abundance fitness was -0.546 ± 0.049.
With D43Q the figure was -0.123 ± 0.048; with D43P, -0.093 ± 0.041; with D43E, -0.037 ± 0.043.
With D43W the figure was -0.189 ± 0.041; with D43L, -0.098 ± 0.034.
With V16W the figure was -0.148 ± 0.055; with V16D, 0.017 ± 0.036; with V16T, 0.044 ± 0.044.
Consider V16A, for which the abundance fitness is 0.042 ± 0.036.
In the case of Q21F, the abundance fitness is -0.078 ± 0.04.
With Q21P the figure was -0.072 ± 0.082; with Q21G, -0.018 ± 0.035.
With Q21I the figure was -0.091 ± 0.046; with Q21E, -0.067 ± 0.062; with T42V, -0.136 ± 0.044.
With T42A the figure was -0.024 ± 0.04; with R57G, 0.051 ± 0.035.
On to R57H, for which the abundance fitness was -0.046 ± 0.081.
With R57K the figure was -0.029 ± 0.047; with R57M, -0.134 ± 0.046.
With R57F the figure was -0.234 ± 0.095; with R57A, -0.018 ± 0.039; with V10H, -0.161 ± 0.038.
With V10S the figure was -0.401 ± 0.034; with V10M, -0.153 ± 0.06.
Regarding V10T, the abundance fitness is -0.46 ± 0.04.
With V10E the figure was -0.11 ± 0.064; with V10W, -0.381 ± 0.067.
As for V41D, the abundance fitness was -0.297 ± 0.083.
As to V41H, the abundance fitness is -0.639 ± 0.11.
With V41R the figure was -0.308 ± 0.038; with V41F, -0.175 ± 0.097; with V41P, -0.211 ± 0.065.
With V41I the figure was 0.135 ± 0.058.
With V41T the figure was -0.165 ± 0.057.
Consider V41Y, for which the abundance fitness is -0.346 ± 0.12.
With C55S the figure was -0.897 ± 0.075; with C55N, -0.615 ± 0.21.
For C55H, the abundance fitness was -0.938 ± 0.18.
In the case of C55G, the abundance fitness was -0.913 ± 0.06.
With C55R the figure was -0.774 ± 0.05; with E45T, -0.052 ± 0.054; with E45A, -0.087 ± 0.044.
For the variant E45I, the abundance fitness is -0.213 ± 0.1.
With E45R the figure was -0.207 ± 0.042.
As to E45H, the abundance fitness is -0.134 ± 0.091.
E45L: the abundance fitness was -0.048 ± 0.049.
With W53G the figure was -0.27 ± 0.052; with W53C, -0.453 ± 0.092.
With W53P the figure was -0.302 ± 0.058.
On to W53V, for which the abundance fitness was -0.398 ± 0.064.
As for W53R, the abundance fitness is -0.147 ± 0.05.
With W53Q, the abundance fitness was -0.205 ± 0.061.
With H33S the figure was -0.721 ± 0.036.
With H33V the figure was -0.767 ± 0.037; with H33D, -0.547 ± 0.039.
As to H33K, the abundance fitness was -0.542 ± 0.068.
Consider D35L, for which the abundance fitness amounted to 0.06 ± 0.032.
With D35S the figure was -0.034 ± 0.031; with D35V, -0.083 ± 0.032; with D35E, 0.107 ± 0.051.
With D35M the figure was 0.042 ± 0.05; with D35N, -0.052 ± 0.035.
With D35I the figure was -0.079 ± 0.035.
As for D35Q, the abundance fitness was determined as 0.094 ± 0.054.
With N30Q the figure was 0.028 ± 0.084.
With N30L the figure was -0.002 ± 0.047; with N30R, -0.01 ± 0.04; with N30F, -0.179 ± 0.045.
With N30V the figure was -0.129 ± 0.039; with N30S, -0.071 ± 0.043; with N30W, -0.091 ± 0.086.
As for E24G, the abundance fitness is -0.3 ± 0.043.
For E24R, the abundance fitness is -0.094 ± 0.049.
As for E24W, the abundance fitness is -0.563 ± 0.096.
